These are literature values, as cited in PMC6903724.

For the series, the target named is IL-18 (Homo sapiens) (UniProt Q14116).
IL-18 (Homo sapiens), sequence (Q14116 37-193): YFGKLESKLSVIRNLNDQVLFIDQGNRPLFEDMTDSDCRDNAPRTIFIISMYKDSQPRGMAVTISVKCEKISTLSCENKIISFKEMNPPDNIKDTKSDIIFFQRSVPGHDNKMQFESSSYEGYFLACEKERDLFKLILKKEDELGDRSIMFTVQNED

IL-18BP, sequence (O95998 31-194): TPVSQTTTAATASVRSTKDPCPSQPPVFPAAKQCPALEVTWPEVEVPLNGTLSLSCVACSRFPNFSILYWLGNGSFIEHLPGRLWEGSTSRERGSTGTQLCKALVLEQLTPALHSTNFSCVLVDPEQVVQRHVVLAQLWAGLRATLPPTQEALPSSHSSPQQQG

Turning to IL-18BP (from UniProt O95998), the dissociation constant (Kd) (as a rule, the constant that tells how readily two partners part at equilibrium) was 0.4 nM.
